Data on nine proteins can be found in article PMC9205782, “Identifying amyloid-related diseases by mapping mutations in low-complexity protein domains to pathologies” (Nature Structural & Molecular Biology, 2022).

Data set [1] concerns the molecule itself. The experiment in a line: thioflavin T fluorescence on cooling (reversible aggregation, phase separation); same sample concentrations as the aggregation assay; held at 37 °C, cooled to 4 °C for 60 minutes, warmed back to 37 °C.
Data set [2] concerns the molecule itself. The experiment in a line: Western blot of tissue extracts; extracts of human liver tissue (three ASH, one HCC) on a gel, blotted with anti-cytokeratin 8 (C51).
Data set [3] deals with the molecule itself. The experiment in a line: crystal structure; peptide microcrystals grown by hanging drop vapor diffusion; SGMGGIT: 0.1 M phosphate/citrate pH 4.2, 40% ethanol, 5% PEG 1000; SGMGCIT: 0.2 M sodium citrate, 0.1 M HEPES pH 7.5, 20% 2-propanol; GGYAGAS: 2.5 M NaCl, 100 mM sodium acetate pH 4.5, 0.2 M lithium sulfate; data at 100 K.
Data set [4] deals with the molecule itself. The experiment in a line: X-ray fiber powder diffraction of aggregates; aggregated samples centrifuged, exchanged into water, dried between capillaries; cross-beta pattern.

A word on the stoichiometry N: it is a count of units in the complex or per binding partner.

B1: FUS_(1–214), wild type, with N-terminal mCherry (domain or fragment, human, UniProt P35637 1-214, looked up)
chain: MASNDYTQQATQSYGAYPTQPGQGYSQQSSQPYGQQSYSGYSQSTDTSGYGQSSYSSYGQSQNTGYGTQSTPQGYGSTGGYGSSQSSQSSYGQQSSYPGYGQQPAPSSTSGSYGSSSQSSSYGQPQSGSYSQQPSYGGQQQSYGQQQSYNPPQGYGQQNQYNSSSGGGGGGGGGGNYGQDQSSMSSGGGSGGGYGNQDQSGGGGSGGYGQQDRG
notes: FUS, human, residues 1-214; also called wild-type FUS; source: bacterial cultures, purified (Ni-NTA)
B1: the binding result in data set [1] is “binds”.

B2: KRT8 in human liver tissue extracts (natural protein, human (endogenous in liver tissue), UniProt P05787 1-483, looked up)
chain: MSIRVTQKSYKVSTSGPRAFSSRSYTSGPGSRISSSSFSRVGSSNFRGGLGGGYGGASGMGGITAVTVNQSLLSPLVLEVDPNIQAVRTQEKEQIKTLNNKFASFIDKVRFLEQQNKMLETKWSLLQQQKTARSNMDNMFESYINNLRRQLETLGQEKLKLEAELGNMQGLVEDFKNKYEDEINKRTEMENEFVLIKKDVDEAYMNKVELESRLEGLTDEINFLRQLYEEEIRELQSQISDTSVVLSMDNSRSLDMDSIIAEVKAQYEDIANRSRAEAESMYQIKYEELQSLAGKHGDDLRRTKTEISEMNRNISRLQAEIEGLKGQRASLEAAIADAEQRGELAIKDANAKLSELEAALQRAKQDMARQLREYQELMNVKLALDIEIATYRKLLEGEESRLESGMQNMSIHTKTTSGYAGGLSSAYGGLTSPGLSYSLGSSFGSGAGSSSFSRTSSSRAVVVKKIETRDGKLVSESSDVLPK
notes: keratin-8 (KRT8), endogenous in human liver; monomer band at 52 KDa; also called keratin-8; cytokeratin 8; source: endogenous, extracts of human liver tissue (ASH or HCC)
For B2, the “stoichiometry N” value in data set [2] turned out to be 2.

B3: KRT8_(58–64) wild-type segment SGMGGIT (peptide)
peptide: SGMGGIT
notes: keratin-8 (KRT8), human, head domain segment, residues 58-64; Crystallised as an amyloid-like fibril of stacked identical strands (anti-parallel class-7 steric zipper) with PEG 1000 and ethanol; also called 58SGMGGIT64; source: synthetic peptide, bought: GenScript
Consider B3, for which the binding result in data set [3] is listed as “binds”.

B4: KRT8_(58–64) G62C segment SGMGCIT (peptide)
peptide: SGMGCIT
notes: G62C is found in people with cryptogenic liver disease; Crystallised as a class-2 parallel steric zipper with isopropanol; also called 58SGMGCIT64; KRT8-G62C segment; source: synthetic peptide, bought: GenScript
Turning to B4, the binding result in data set [3] was “binds”.

B5: KRT8_(1–90), head domain of keratin-8, wild type, with N-terminal mCherry (domain or fragment, human)
chain: SIRVTQKSYKVSTSGPRAFSSRSYTSGPGSRISSSSFSRVGSSNFRGGLGGGYGGASGMGGITAVTVNQSLLSPLVLEVDPNIQAVRTQ
notes: keratin-8 (KRT8), human, head domain, residues 1-90 as stated; No removal of mCherry or the His tag is described; also called WT KRT8_(1-90); wild-type KRT8; source: bacterial cultures, purified (Ni-NTA)
On to B5, for which, in data set [1], the binding result is reported as “binds”.

B6: KRT8_(52–58)-G55A segment GGYAGAS (peptide)
peptide: GGYAGAS
notes: G55A is found in people with cryptogenic liver disease; Crystallised as an anti-parallel class-6 steric zipper; also called 52GGYAGAS58; source: synthetic peptide, bought: GenScript
On to B6, for which, in data set [3], the binding result was “binds”.

B7: KRT8_(1–90) Y54H with N-terminal mCherry (domain or fragment, human, UniProt P05787 1-90, looked up)
chain: MSIRVTQKSYKVSTSGPRAFSSRSYTSGPGSRISSSSFSRVGSSNFRGGLGGGHGGASGMGGITAVTVNQSLLSPLVLEVDPNIQAVRTQ
notes: keratin-8 (KRT8), human, head domain, residues 1-90, variant Y54H; Variant found in people with cryptogenic liver disease; source: bacterial cultures, purified (Ni-NTA)
As for B7, the binding result in data set [4] is reported as “binds”.

B8: KRT8_(1–90) G62C with N-terminal mCherry (domain or fragment, human, UniProt P05787 1-90, looked up)
chain: MSIRVTQKSYKVSTSGPRAFSSRSYTSGPGSRISSSSFSRVGSSNFRGGLGGGYGGASGMGCITAVTVNQSLLSPLVLEVDPNIQAVRTQ
notes: keratin-8 (KRT8), human, head domain, residues 1-90, variant G62C; Variant found in people with cryptogenic liver disease; source: bacterial cultures, purified (Ni-NTA)
B8: the binding result in data set [1] is reported as “binds”.

B9: KRT8_(1–90) G55A with N-terminal mCherry (domain or fragment, human, UniProt P05787 1-90, looked up)
chain: MSIRVTQKSYKVSTSGPRAFSSRSYTSGPGSRISSSSFSRVGSSNFRGGLGGGYAGASGMGGITAVTVNQSLLSPLVLEVDPNIQAVRTQ
notes: keratin-8 (KRT8), human, head domain, residues 1-90, variant G55A; Variant found in people with cryptogenic liver disease; source: bacterial cultures, purified (Ni-NTA)
Turning to B9, the binding result in data set [4] is “binds”.
